Experimental data from patent publication US20260207718.

Target: cation-independent mannose-6-phosphate receptor (CIMPR) on fibroblast cells (UniProt P11717)
Sequence (P11717 41-2491): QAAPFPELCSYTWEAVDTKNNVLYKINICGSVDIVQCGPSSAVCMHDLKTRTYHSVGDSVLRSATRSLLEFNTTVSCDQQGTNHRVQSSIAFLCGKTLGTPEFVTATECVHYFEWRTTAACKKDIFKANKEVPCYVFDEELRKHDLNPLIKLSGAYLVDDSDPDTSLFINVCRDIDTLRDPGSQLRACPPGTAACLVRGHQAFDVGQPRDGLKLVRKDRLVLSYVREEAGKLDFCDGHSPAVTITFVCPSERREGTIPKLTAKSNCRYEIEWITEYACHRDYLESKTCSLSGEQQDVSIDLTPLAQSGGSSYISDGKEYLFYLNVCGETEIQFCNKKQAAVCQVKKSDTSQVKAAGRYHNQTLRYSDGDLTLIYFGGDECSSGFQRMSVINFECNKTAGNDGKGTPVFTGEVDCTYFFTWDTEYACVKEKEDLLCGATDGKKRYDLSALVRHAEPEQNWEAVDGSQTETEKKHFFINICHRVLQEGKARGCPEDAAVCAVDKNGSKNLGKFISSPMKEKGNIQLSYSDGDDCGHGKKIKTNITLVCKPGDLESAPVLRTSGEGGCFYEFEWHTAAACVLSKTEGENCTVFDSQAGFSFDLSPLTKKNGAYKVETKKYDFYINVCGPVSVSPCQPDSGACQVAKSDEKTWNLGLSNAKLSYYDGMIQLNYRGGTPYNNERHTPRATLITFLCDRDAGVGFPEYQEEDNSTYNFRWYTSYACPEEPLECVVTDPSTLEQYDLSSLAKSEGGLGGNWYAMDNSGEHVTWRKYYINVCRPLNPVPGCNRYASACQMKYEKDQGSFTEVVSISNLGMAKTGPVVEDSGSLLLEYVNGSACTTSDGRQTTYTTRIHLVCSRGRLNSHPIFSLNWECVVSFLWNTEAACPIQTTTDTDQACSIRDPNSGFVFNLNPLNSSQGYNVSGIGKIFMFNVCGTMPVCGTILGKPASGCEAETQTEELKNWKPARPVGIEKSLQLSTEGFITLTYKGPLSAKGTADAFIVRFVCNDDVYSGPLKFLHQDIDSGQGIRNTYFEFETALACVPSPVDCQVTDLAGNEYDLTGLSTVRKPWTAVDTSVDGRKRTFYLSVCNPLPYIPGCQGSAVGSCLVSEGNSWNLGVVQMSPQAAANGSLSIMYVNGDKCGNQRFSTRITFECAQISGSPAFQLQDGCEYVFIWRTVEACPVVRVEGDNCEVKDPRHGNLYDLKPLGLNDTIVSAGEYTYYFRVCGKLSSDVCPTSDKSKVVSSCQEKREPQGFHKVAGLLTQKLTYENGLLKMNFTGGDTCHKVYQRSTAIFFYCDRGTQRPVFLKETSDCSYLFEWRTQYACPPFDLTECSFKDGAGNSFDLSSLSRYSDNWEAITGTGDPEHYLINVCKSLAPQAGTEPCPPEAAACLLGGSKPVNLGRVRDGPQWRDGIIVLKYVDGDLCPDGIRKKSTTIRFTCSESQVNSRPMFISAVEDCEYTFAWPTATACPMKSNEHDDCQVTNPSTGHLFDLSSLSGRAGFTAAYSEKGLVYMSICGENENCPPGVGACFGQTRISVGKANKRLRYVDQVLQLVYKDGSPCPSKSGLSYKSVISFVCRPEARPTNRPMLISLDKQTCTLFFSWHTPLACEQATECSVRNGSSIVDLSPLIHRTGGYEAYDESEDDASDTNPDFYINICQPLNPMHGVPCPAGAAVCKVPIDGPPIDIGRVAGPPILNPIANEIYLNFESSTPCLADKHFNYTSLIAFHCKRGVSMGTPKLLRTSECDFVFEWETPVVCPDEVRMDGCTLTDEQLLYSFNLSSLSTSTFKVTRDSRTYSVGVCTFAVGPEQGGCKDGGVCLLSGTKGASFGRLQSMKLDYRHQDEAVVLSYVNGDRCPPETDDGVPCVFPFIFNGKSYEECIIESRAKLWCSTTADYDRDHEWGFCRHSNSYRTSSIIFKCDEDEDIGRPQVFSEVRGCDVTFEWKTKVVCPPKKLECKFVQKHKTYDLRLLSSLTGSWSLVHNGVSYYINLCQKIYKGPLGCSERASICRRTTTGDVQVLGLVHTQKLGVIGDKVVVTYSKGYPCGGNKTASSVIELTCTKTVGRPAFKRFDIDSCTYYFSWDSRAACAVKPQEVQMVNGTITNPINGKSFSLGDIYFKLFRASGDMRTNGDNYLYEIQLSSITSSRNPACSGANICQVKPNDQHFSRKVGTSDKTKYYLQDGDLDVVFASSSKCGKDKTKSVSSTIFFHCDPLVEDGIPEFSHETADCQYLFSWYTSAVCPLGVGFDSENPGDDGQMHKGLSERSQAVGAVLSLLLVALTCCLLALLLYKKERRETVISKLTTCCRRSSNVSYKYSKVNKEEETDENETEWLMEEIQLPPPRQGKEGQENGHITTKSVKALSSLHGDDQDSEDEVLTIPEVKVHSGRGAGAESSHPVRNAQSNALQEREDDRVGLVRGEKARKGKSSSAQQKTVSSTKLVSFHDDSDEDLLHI

Row | Substance | stated: internalized (GAA activity inside CRL 2076 normal fibroblasts) | stated: internalized (GAA activity inside PM25 Pompe fibroblasts)
1 | LUMIZYME® (alglucosidase alfa, conventional rhGAA product) | The curve labelled Alglucosidase Alfa rises gradually from 0: about 8 at about 10 nM, about 16 at about 27 nM and about 23 at about 80 nM. It reaches about 35 nmol/mg protein/hr at about 240 nM, where it meets the ATB200 curve. The +M6P point (square) at about 240 nM lies at about 1, on the zero lin | The curve labelled Alglucosidase Alfa rises gradually from 0: about 7 at about 10 nM, about 13 at about 27 nM and about 26 at about 80 nM. It reaches about 37 nmol/mg protein/hr at about 240 nM and stays below the ATB200 curve throughout. The +M6P points at about 245 nM lie at about 1-4, near the ze
2 | ATB200 recombinant human acid α-glucosidase (rhGAA) | The curve labelled ATB200 rises steeply from 0 to about 33 nmol/mg protein/hr at about 25 nM. It then stays on a plateau of about 34 up to about 240 nM. The +M6P point (triangle) at about 240 nM lies at about 5, near the zero line. | The curve labelled ATB200 rises steeply from 0 to about 30 at about 10 nM and about 36 at about 27 nM. The fitted plateau is about 41 nmol/mg protein/hr from about 80 nM. The last point, at about 240 nM, is about 45. The +M6P points at about 245 nM lie at about 1-4, near the zero line.
